Experimental data reported in IntAct's records for PubMed 9162036.

Target: ap2m1_rat Ap2m1 (UniProt P84092)
Sequence (P84092 whole entry): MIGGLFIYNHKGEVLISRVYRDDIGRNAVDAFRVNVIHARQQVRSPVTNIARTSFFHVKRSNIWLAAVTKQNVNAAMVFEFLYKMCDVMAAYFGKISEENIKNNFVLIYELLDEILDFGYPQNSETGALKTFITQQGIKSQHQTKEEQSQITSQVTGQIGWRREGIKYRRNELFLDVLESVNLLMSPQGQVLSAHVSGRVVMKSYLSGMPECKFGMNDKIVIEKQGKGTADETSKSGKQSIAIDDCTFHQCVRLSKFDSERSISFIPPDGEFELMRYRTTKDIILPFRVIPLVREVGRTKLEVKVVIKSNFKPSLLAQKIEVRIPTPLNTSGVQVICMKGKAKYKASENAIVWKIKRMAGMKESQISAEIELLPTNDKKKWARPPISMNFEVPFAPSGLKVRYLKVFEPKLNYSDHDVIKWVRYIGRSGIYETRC

Trans-Golgi network integral membrane protein TGN38 (Rattus norvegicus (Rat)), P19814 S348A, sequence (P19814 whole entry S348A): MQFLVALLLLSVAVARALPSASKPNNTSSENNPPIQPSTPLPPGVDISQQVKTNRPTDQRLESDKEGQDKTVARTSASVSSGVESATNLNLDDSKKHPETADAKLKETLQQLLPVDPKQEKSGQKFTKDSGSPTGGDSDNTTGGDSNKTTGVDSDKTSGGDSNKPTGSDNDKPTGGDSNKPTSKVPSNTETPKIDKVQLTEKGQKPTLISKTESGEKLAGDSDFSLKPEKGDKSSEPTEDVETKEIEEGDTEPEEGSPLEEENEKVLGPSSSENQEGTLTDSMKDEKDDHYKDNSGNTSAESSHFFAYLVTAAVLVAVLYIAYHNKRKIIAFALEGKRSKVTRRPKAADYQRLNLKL
Trans-Golgi network integral membrane protein TGN38 (Rattus norvegicus (Rat)), P19814 Y350A, sequence (P19814 whole entry Y350A): as the sequence (P19814 whole entry S348A) above, with A348S, Y350A counted along it

Substance | effect of a mutation on the interaction
Trans-Golgi network integral membrane protein TGN38 (Rattus norvegicus (Rat)), P19814 S348A | decreasing interaction
Trans-Golgi network integral membrane protein TGN38 (Rattus norvegicus (Rat)), P19814 Y350A | decreasing interaction
